Publication PMC4807065

Target: large catalase (CAT) from Aspergillus terreus MTCC 6324 (Aspergillus terreus MTCC 6324)
Experiment: SEC; HiPrep Sephacryl S-300 HR column, 50 mM sodium phosphate buffer pH 7.5; native mass against gel filtration standards (29-669 kDa), compared with the subunit mass from SDS-PAGE

With “large catalase (CAT) from Aspergillus terreus MTCC 6324 (enzyme)” the stoichiometry N was 4.
